Experimental data reported in patent US20250011424A1 (SALVARX, published 2025).

Key:
Human RAGE = target: T1, Human RAGE (human, UniProt Q15109 23-404); assay: flow cytometry on human colorectal cancer samples
T1 construct: also called receptor for advanced glycation end products; AGER

[1] = target: T2, V-C1-C2 construct of human RAGE (human, UniProt Q15109 23-404); assay: binding to cells expressing RAGE domain constructs fused to eGFP
T2 construct: also called ABC construct; not shown: eGFP of the vector pEGFP-N2, fused in frame at the C-terminus
T2 sequence (Q15109 23-404): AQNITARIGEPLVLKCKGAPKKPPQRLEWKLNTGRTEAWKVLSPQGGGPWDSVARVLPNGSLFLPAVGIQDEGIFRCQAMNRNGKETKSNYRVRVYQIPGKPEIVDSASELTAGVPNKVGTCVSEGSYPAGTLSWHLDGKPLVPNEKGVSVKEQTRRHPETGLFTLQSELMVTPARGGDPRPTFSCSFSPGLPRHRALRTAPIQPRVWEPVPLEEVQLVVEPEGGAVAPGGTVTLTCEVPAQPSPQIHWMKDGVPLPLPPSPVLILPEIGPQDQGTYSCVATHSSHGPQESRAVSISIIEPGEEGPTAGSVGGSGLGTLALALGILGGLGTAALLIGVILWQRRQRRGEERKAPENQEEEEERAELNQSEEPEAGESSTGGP
Excerpt: The extracellular portion of the RAGE protein contains three domains with similarities to the IgG family. The three domains are V, C1, and C2 (variable, constant 1, and constant 2, respectively). RS07 binds the V domain while RS15 binds an integrated V-C1 domain (FIG. 2B). RAGE constructs used in the present exemplary embodiment include a V-C1-C2 construct starting at amino acid 23 of SEQ ID NO:1 (AQNITA . . . ), immediately following the native signal sequence. The C1-C2 construct starts at amino acid 117 of SEQ ID NO:1 (VYQIPG . . . ), and the C2 construct starts at amino acid 249 of SEQ ID NO:1 (VAPGG . . . ). Domains were predicted on Genbank and by crystal structure. To map antibody binding to individual RAGE domains, the IL2 signal sequence was cloned into pEGFP-N2, into which portions of RAGE were cloned in-frame with IL2 signal sequence (IL2ss) at the 5′ end and in-frame with eGFP at the 3′ end. In addition to the extracellular portions of RAGE, all constructs contain the RAGE transmembrane and C-terminal regions, so the GFP signal should be intracellular, while the IL2ss ensures the RAGE V, C1, and/or C2 motifs are extracellular, and accessible to antibodies. The ABC construct in FIG. 2B includes the V, C1, and C2 domains, and initiates at aa 23 of SEQ ID NO: 1. The BC construct in FIG. 2B includes the C1 and C2 domains, and initiates at aa 116 of SEQ ID NO: 1. […]

T1 sequence (Q15109 23-404): as above

B1: RS15 (antibody, V domains shown)
VH: QVQLQQSGAELVRPGTSLKVSCKASGYAFTNYLIEWVNQRPGQGLEWIGVINPGSGGTHYNEKFKGKATLTADKSSSTAYMQLSSLTSDDSAIYFCARSRAVRAMDYWGQGTSVTV
VL: DIVMTQSQKFMSTSVGDRVSVTCKASQNVGTNVAWYQQKPGQSPKSLIYSASYRYSGVPDRFTGSGSGTDFTLTISNVQSEDLAEYFCQQYNSYFFTFGAGTKLELKR
notes: Mouse monoclonal IgG from a hybridoma (BALB/c immunised with human RAGE extracellular domain); also called RFT01; anti-RAGE (RS15)
Q: Which results are given for B1?
A: binding result (Human RAGE): binds; binding result [1]: binds
